Substitutions are numbered along the chain they refer to. Names and notes keep the numbering of the source.
B1: L92AY93V: mutated TriA variant of SEQ ID NO: 2 (protein)
chain: MQTLSIQHGTLVTMDQYRRVLGDSWVHVQDGRIVALGVHAESVPPPADRVIDARGKVVLPGFINAHTHVNQILLRGGPSHGRQLYDWLFNVAVPGQKAMRPEDVAVAVRLYCAEAVRSGITTINDNADSAIYPGNIEAAMAVYGEVGVRVVYARMFFDRMDGRIQGYVDALKARSPQVELCSIMEETAVAKDRITALSDQYHGTAGGRISVWPAPAITPAVTVEGMRWAQAFARDRAVMWTLHMAESDHDERLHWMSPAEYMECYGLLDERLQVAHCVYFDRKDVRLLHRHNVKVASQVVSNAYLGSGVAPVPEMVERGMAVGIGTDDGNCNDSVNMIGDMKFMAHIHRAVHRDADVLTPEKILEMATIDGARSLGMDHEIGSIETGKRADLILLDLRHPQTTPHHHLAATIVFQAYGNEVDTVLIDGNVVMENRRLSFLPPERELAFLEEAQSRATAILQRANMVANPAWRSL
modifications: Pseudomonas
B2: Y85LL88AF89AL92AY93VQ96TD128GM155VF157L: mutated TriA variant of SEQ ID NO: 2 (protein)
chain: B1 chain with Y85L, L88A, F89A, Q96T, D128G, M155V, F157L
modifications: Pseudomonas
B3: L88AL92AY93LF157L: mutated TriA variant of SEQ ID NO: 2 (protein)
chain: B1 chain with L88A, V93L, F157L
modifications: Pseudomonas
B4: Y85LL88AF89AL92AY93LQ96TD128GM155VF157L: mutated TriA variant of SEQ ID NO: 2 (protein)
chain: B1 chain with Y85L, L88A, F89A, V93L, Q96T, D128G, M155V, F157L
modifications: Pseudomonas
B5: N70LQ71LF157A: mutated TriA variant of SEQ ID NO: 2 (protein)
chain: B1 chain with N70L, Q71L, A92L, V93Y, F157A
modifications: Pseudomonas
B6: D128V: mutated TriA variant of SEQ ID NO: 2 (protein)
chain: B1 chain with A92L, V93Y, D128V
modifications: Pseudomonas
B7: L92AY93LM155TF157L: mutated TriA variant of SEQ ID NO: 2 (protein)
chain: B1 chain with V93L, M155T, F157L
modifications: Pseudomonas
B8: W87FL92AY93LF157L: mutated TriA variant of SEQ ID NO: 2 (protein)
chain: B1 chain with W87F, V93L, F157L
modifications: Pseudomonas
B9: L92AY93LF157L: mutated TriA variant of SEQ ID NO: 2 (protein)
chain: B1 chain with V93L, F157L
modifications: Pseudomonas
B10: L92AY93VM155TF157L: mutated TriA variant of SEQ ID NO: 2 (protein)
chain: B1 chain with M155T, F157L
modifications: Pseudomonas
B11: N70VD128SM155V: mutated TriA variant of SEQ ID NO: 2 (protein)
chain: B1 chain with N70V, A92L, V93Y, D128S, M155V
modifications: Pseudomonas
B12: D128P: mutated TriA variant of SEQ ID NO: 2 (protein)
chain: B1 chain with A92L, V93Y, D128P
modifications: Pseudomonas
B13: N70VM155V: mutated TriA variant of SEQ ID NO: 2 (protein)
chain: B1 chain with N70V, A92L, V93Y, M155V
modifications: Pseudomonas
B14: N70VD128TM155V: mutated TriA variant of SEQ ID NO: 2 (protein)
chain: B1 chain with N70V, A92L, V93Y, D128T, M155V
modifications: Pseudomonas
B15: W87AL92AY93LF157L: mutated TriA variant of SEQ ID NO: 2 (protein)
chain: B1 chain with W87A, V93L, F157L
modifications: Pseudomonas
B16: L92AY93I: mutated TriA variant of SEQ ID NO: 2 (protein)
chain: B1 chain with V93I
modifications: Pseudomonas
B17: M155L: mutated TriA variant of SEQ ID NO: 2 (protein)
chain: B1 chain with A92L, V93Y, M155L
modifications: Pseudomonas
B18: D128G: mutated TriA variant of SEQ ID NO: 2 (protein)
chain: B1 chain with A92L, V93Y, D128G
modifications: Pseudomonas
B19: W87HL92AY93LF157L: mutated TriA variant of SEQ ID NO: 2 (protein)
chain: B1 chain with W87H, V93L, F157L
modifications: Pseudomonas
B20: F157T: mutated TriA variant of SEQ ID NO: 2 (protein)
chain: B1 chain with A92L, V93Y, F157T
modifications: Pseudomonas

Format: biochemical
Conditions: pH 7.2
In short: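 TriA variants, N-His-tagged, were expressed in E. coli BL21(DE3) Gold with groEL/groES chaperones and purified by Ni-IDA affinity. Enzyme in 25 mM sodium phosphate pH 7.2 was incubated with azine substrates at 1 nM to 10 nM, 30° C. Products were identified by UPLC-HR-MS.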

Row | Molecule | Degradation in % of 6-cyclopentyl-N4-(2,3,4,5,6-pentafluorophenyl)-1,3,5-triazine-2,4-diamine | Degradation in % of Melamine
1 | B1 | 58% | 0%
2 | B2 | 13% | 6%
3 | B3 | 99% | 1%
4 | B4 | 13% | 1%
5 | B5 | 0% | 2%
6 | B6 | 2% | 0%
7 | B7 | 99% | 41%
8 | B8 | 99% | 1%
9 | B9 | 97% | 43%
10 | B10 | 99% | 0%
11 | B11 | 0% | 0%
12 | B12 | 0% | 0%
13 | B13 | 0% | 0%
14 | B14 | 1% | 4%
15 | B15 | 12% | 3%
16 | B16 | 75% | 0%
17 | B17 | 0% | 4%
18 | B18 | 0% | 0%
19 | B19 | 18% | 0%
20 | B20 | 0% | 60%
